Positions of bridges follow the written chain, without caps; N, C: chain ends. Non-standard residues stand in square brackets, D forms with d. No end group written: not given here. Aib = CC(C)(N)C(=O)O
Key:
Assay type in all cases: cell-based
[1] = biological target: T1, human GIP receptor (Homo sapiens, UniProt P48546); assay: In vitro cAMP activity (LANCE cAMP kit) in CHO cells expressing human GIP receptor, relative to human GIP; details: long-acting conjugates, relative potency from cAMP EC50 compared to human GIP
T1 construct: expressed in transfected cells; host or cells: Chinese hamster ovary (CHO)
T1 sequence (P48546 22-466): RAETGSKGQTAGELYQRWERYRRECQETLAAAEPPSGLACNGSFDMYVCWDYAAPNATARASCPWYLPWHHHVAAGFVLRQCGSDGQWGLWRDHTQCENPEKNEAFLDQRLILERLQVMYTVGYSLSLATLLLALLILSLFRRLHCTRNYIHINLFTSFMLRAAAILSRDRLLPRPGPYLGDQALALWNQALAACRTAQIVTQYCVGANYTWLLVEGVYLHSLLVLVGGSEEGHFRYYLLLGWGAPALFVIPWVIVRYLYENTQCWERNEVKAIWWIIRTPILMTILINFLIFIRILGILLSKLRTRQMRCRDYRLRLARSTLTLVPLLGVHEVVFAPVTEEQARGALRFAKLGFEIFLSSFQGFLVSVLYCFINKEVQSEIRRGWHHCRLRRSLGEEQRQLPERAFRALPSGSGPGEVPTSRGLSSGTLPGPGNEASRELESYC
Protocol: (§1) The activities of the triple agonists and long-acting conjugates thereof prepared in Examples 1 and 2 were measured by a method of measuring in vitro cellular activities using cell lines, where a GLP-1 receptor, a glucagon (GCG) receptor, and a GIP receptor are transformed, respectively.
(§2) Each of the cell lines above is one in which the genes for human GLP-1 receptor, human GCG receptor, and human GIP receptor were transformed in Chinese hamster ovary (CHO), respectively, and can be expressed therein, and is thus suitable for the measurement of the activities of GLP-1, GCG, and GIP. Accordingly, the activity for each part was measured using the respective transformed cell line.
(§3) For the measurement of the GIP activities of the triple agonists and long-acting conjugates prepared in Examples 1 and 2, human GIP was subjected to a 4-fold serial dilution from 50 nM to 0.000048 nM, and the triple agonists and long-acting conjugates thereof prepared in Examples 1 and 2 were subjected to a 4-fold serial dilution from 400 nM to 0.00038 nM. The culture solution was removed from the cultured CHO cells, in which the human GIP receptor was expressed, and each of the serially-diluted materials was added to the CHO cells in an amount of 5 μL, respectively. Then, a buffer solution containing cAMP antibody was added thereto in an amount of 5 μL and cultured at room temperature for 15 minutes. Then, a detection mix containing a cell lysis buffer was added thereto in an amount of 10 μL for the lysis of the cells and reacted at room temperature for 90 minutes. The cell lysates, upon completion of the reaction, were applied to LANCE cAMP kit (PerkinElmer, USA) to calculate the EC50 value via accumulated cAMP, and the values were compared with each other.

[2] = biological target: T2, human GCG receptor (Homo sapiens, UniProt P47871); assay: In vitro cAMP activity (LANCE cAMP kit) in CHO cells expressing human GCG receptor, relative to human GCG; details: long-acting conjugates, relative potency from cAMP EC50 compared to human GCG
T2 construct: expressed in transfected cells; host or cells: Chinese hamster ovary (CHO)
T2 sequence (P47871 26-477): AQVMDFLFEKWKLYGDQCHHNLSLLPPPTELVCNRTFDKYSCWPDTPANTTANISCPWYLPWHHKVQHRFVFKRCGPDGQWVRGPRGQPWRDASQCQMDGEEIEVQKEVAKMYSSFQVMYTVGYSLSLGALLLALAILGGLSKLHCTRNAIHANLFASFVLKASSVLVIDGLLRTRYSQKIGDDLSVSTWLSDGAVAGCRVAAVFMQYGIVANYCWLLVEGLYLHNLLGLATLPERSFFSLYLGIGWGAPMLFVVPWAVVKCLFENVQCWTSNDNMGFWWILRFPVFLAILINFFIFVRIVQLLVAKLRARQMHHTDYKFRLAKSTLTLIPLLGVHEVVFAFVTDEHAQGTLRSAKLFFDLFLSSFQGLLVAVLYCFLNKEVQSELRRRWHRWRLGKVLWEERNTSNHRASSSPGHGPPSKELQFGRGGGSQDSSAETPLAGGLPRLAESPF
Protocol: as §1, §2
as §3, with “GCG” for “GIP”

[3] = biological target: T3, human GLP-1 receptor (Homo sapiens, UniProt P43220); assay: In vitro cAMP activity (LANCE cAMP kit) in CHO cells expressing human GLP-1 receptor, relative to human GLP-1; details: long-acting conjugates; relative potency from cAMP EC50 compared to human GLP-1, CHO cells
T3 construct: expressed in transfected cells; host or cells: Chinese hamster ovary (CHO)
T3 sequence (P43220 24-463): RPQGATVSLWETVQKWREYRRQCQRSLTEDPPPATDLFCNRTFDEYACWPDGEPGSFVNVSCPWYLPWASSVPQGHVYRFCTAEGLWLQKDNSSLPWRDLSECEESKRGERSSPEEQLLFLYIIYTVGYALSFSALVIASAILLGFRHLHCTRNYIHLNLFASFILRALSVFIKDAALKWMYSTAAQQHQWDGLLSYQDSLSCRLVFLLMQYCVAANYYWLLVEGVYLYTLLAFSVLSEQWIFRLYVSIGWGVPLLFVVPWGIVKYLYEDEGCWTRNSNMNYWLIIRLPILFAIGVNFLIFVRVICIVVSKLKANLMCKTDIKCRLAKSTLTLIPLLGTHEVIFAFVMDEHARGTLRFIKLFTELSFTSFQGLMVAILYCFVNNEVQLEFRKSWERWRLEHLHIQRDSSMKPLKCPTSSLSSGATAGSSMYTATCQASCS
Protocol: as §1, §2
as §3, with “GLP-1” for “GIP”

| Substance | In vitro activity compared to native peptide (%) vs. GIP [1] [%] | In vitro activity compared to native peptide (%) vs. Glucagon [2] [%] | In vitro activity compared to native peptide (%) vs. GLP-1 [3] [%] |
| --- | --- | --- | --- |
| 21 (Y[Aib]QGTFTSDYSKYLDECRAKEFVQWLLDHHPSSGQPPPS; bridge 16-20) [compound 21] | 0.2 | 1.6 | 0.1 |
| 22 (Y[Aib]QGTFTSDYSKCLDEKRAKEFVQWLLDHHPSSGQPPPS; bridge 16-20) [compound 22] | 0.5 | 0.9 | 0.1 |
| 43 (Y[Aib]QGTFTSDYSKYLDEKRAKEFVQWLLDHHCSSGQPPPS; bridge 16-20) [compound 43] | 0.6 | 13.5 | 2.1 |
| 77 (Y[Aib]QGTFTSDYSKYLDEKAAKDFVQWLLDHHPSSGQPPPSC; bridge 16-20) [compound 77] | 6.6 | 1.7 | 6.7 |
| 96 (Y[Aib]QGTFTSDYSKYLDEKRAKEFVQWLLDHCPSSGQPPPS; bridge 16-20) [compound 96] | 0.3 | 4.0 | 0.3 |

Other lines, results leading:

| In vitro activity compared to native peptide (%) vs. GIP [1] [%] | In vitro activity compared to native peptide (%) vs. Glucagon [2] [%] | In vitro activity compared to native peptide (%) vs. GLP-1 [3] [%] | Substance |
| --- | --- | --- | --- |
| 1.2 | 23.1 | 3.1 | 42 (Y[Aib]QGTFTSDYSKYLDEKRAKEFVQWLLDHHPSSGQPPPSC; bridge 16-20) [compound 42] |
| 0.7 | 6.9 | 15.4 | 50 (H[Aib]QGTFTSDYSKYLDEKRAKEFVQWLLDHHPSSGQPPPSC; bridge 16-20) [compound 50] |

From patent US10981967B2, “Long-acting conjugate of triple glucagon/GLP-1/GIP receptor agonist” (HANMI PHARM. CO., LTD., priority 2015, dated 2021)
